The target of this assay is HA in BPL-inactivated virus preparation of A/New Caledonia/20/99 (H1N1) (influenza A virus A/New Caledonia/20/99 (H1N1)). Kind of assay: ELISA, IgG 5 µg/ml. In general terms: An ELISA detects its analyte on a solid surface through an enzyme-linked reagent.

In turn, CR3014 (antibody) returned an OD 492nm of 0.09 OD 492nm. With CR6261 (antibody) the figure was 1.46 OD 492nm.
